Columns and labels:
Test in all cases: co-IP
[1] = target: Plk4-EGFP A15 (Drosophila) (UniProt O97143)
[2] = target: Plk4-EGFP A16 (Drosophila) (UniProt O97143)
[3] = target: Plk4-EGFP A17 (Drosophila) (UniProt O97143)
[4] = target: Plk4-EGFP A18 (Drosophila) (UniProt O97143)
[5] = target: Plk4-EGFP A19 (Drosophila) (UniProt O97143)
[6] = target: Plk4-EGFP A20 (Drosophila) (UniProt O97143)
[7] = target: Plk4-EGFP A26 (Drosophila) (UniProt O97143)

Slimb (F-box protein of the SCF ubiquitin ligase) (natural protein)
2 fold: further fold decrease of Slimb binding (beyond A14) [1] | further fold decrease of Slimb binding (beyond A14) [2] | further fold decrease of Slimb binding (beyond A14) [3] | further fold decrease of Slimb binding (beyond A14) [4] | further fold decrease of Slimb binding (beyond A14) [5] | further fold decrease of Slimb binding (beyond A14) [6]
5 fold: fold reduction in the amount of associated Slimb [7]

— PMC3844517
